Laboratory results from patent US9862971B2 (BUNDESREPUBLIK DEUTSCHLAND, LETZTVERTRETEN DURCH DEN …, dated 2018).

T1: Human SLAM (signaling lymphocyte-activation molecule) (human, UniProt Q13291)
T1 sequence: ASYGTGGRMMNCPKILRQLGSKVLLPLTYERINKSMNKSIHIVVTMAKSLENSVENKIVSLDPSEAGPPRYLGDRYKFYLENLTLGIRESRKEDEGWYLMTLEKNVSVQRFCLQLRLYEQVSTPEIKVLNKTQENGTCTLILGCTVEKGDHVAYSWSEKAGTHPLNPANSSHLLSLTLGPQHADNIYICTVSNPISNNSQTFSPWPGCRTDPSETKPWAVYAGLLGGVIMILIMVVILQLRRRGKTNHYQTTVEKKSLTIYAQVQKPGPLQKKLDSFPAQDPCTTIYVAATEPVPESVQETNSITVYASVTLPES

B1: HmutEGFΔ19 (other)
chain: MSRIVINREHLMIDRPYVLLAVLFVMFLSLIGLLAIAGIRLHRAAIYTAEIHKSLSTNLDVTNSIEHQVKDVLTPLFKIIGDEVGLRTPQRFTDLVKFISDKIKFLNPDREYDFRDLTWCINPPERIKLDYDQYCADVAAEELMNALVNSTLLETRTTNQFLAVSKGNCSGPTTIRGQFSNMSLSLLDLYLGRGYNVSSIVTMTSQGMYGGTYLVEKPNLSSKRSELSQLSMYRVFEVGVIRNPGLGAPVFHMTNYLEQPVSNDLSNCMVALGELKLAALCHGEDSITIPYQGSGKGVSFQLVKLGVWKSPTDMQSWVPLSTDDPVIDRLYLSSHRGVIADNQAKWAVPTTRTDDKLRMETCFQQACKGKIQALCENPEWAPLKDNRIPSYGVLSVDLSLTVELKIKIASGFGPLITHGSGMDLYKSNHNNVYWLTIPPMKNLALGVINTLEWIPRFKVSPALFTVPIKEAGGDCHAPTYLPAEVDGDVKLSSNLVILPGQDLQYVLATYDTSAVEHAVVYYVYSPSRLSSYFYPFRLPIKGVPIELQVECFTWDQKLWCRHFCVLADSESGGHITHSGMVGMGVSCTVTREDGTNAAQPAMANSDSECPLSHDGYCLHDGVCMYIEALDKYACNCVVGYIGERCQYRDLKWWELRAAARGSHHHHHH
B2: HmutEGFΔ18 (other)
chain: MGSRIVINREHLMIDRPYVLLAVLFVMFLSLIGLLAIAGIRLHRAAIYTAEIHKSLSTNLDVTNSIEHQVKDVLTPLFKIIGDEVGLRTPQRFTDLVKFISDKIKFLNPDREYDFRDLTWCINPPERIKLDYDQYCADVAAEELMNALVNSTLLETRTTNQFLAVSKGNCSGPTTIRGQFSNMSLSLLDLYLGRGYNVSSIVTMTSQGMYGGTYLVEKPNLSSKRSELSQLSMYRVFEVGVIRNPGLGAPVFHMTNYLEQPVSNDLSNCMVALGELKLAALCHGEDSITIPYQGSGKGVSFQLVKLGVWKSPTDMQSWVPLSTDDPVIDRLYLSSHRGVIADNQAKWAVPTTRTDDKLRMETCFQQACKGKIQALCENPEWAPLKDNRIPSYGVLSVDLSLTVELKIKIASGFGPLITHGSGMDLYKSNHNNVYWLTIPPMKNLALGVINTLEWIPRFKVSPALFTVPIKEAGGDCHAPTYLPAEVDGDVKLSSNLVILPGQDLQYVLATYDTSAVEHAVVYYVYSPSRLSSYFYPFRLPIKGVPIELQVECFTWDQKLWCRHFCVLADSESGGHITHSGMVGMGVSCTVTREDGTNAAQPAMANSDSECPLSHDGYCLHDGVCMYIEALDKYACNCVVGYIGERCQYRDLKWWELRAAARGSHHHHHH
B3: HmutEGFΔ24+4A (other)
chain: MAAAANREHLMIDRPYVLLAVLFVMFLSLIGLLAIAGIRLHRAAIYTAEIHKSLSTNLDVTNSIEHQVKDVLTPLFKIIGDEVGLRTPQRFTDLVKFISDKIKFLNPDREYDFRDLTWCINPPERIKLDYDQYCADVAAEELMNALVNSTLLETRTTNQFLAVSKGNCSGPTTIRGQFSNMSLSLLDLYLGRGYNVSSIVTMTSQGMYGGTYLVEKPNLSSKRSELSQLSMYRVFEVGVIRNPGLGAPVFHMTNYLEQPVSNDLSNCMVALGELKLAALCHGEDSITIPYQGSGKGVSFQLVKLGVWKSPTDMQSWVPLSTDDPVIDRLYLSSHRGVIADNQAKWAVPTTRTDDKLRMETCFQQACKGKIQALCENPEWAPLKDNRIPSYGVLSVDLSLTVELKIKIASGFGPLITHGSGMDLYKSNHNNVYWLTIPPMKNLALGVINTLEWIPRFKVSPALFTVPIKEAGGDCHAPTYLPAEVDGDVKLSSNLVILPGQDLQYVLATYDTSAVEHAVVYYVYSPSRLSSYFYPFRLPIKGVPIELQVECFTWDQKLWCRHFCVLADSESGGHITHSGMVGMGVSCTVTREDGTNAAQPAMANSDSECPLSHDGYCLHDGVCMYIEALDKYACNCVVGYIGERCQYRDLKWWELRAAARGSHHHHHH
B4: HmutscFvCD20Δ18 (other)
chain: MGSRIVINREHLMIDRPYVLLAVLFVMFLSLIGLLAIAGIRLHRAAIYTAEIHKSLSTNLDVTNSIEHQVKDVLTPLFKIIGDEVGLRTPQRFTDLVKFISDKIKFLNPDREYDFRDLTWCINPPERIKLDYDQYCADVAAEELMNALVNSTLLETRTTNQFLAVSKGNCSGPTTIRGQFSNMSLSLLDLYLGRGYNVSSIVTMTSQGMYGGTYLVEKPNLSSKRSELSQLSMYRVFEVGVIRNPGLGAPVFHMTNYLEQPVSNDLSNCMVALGELKLAALCHGEDSITIPYQGSGKGVSFQLVKLGVWKSPTDMQSWVPLSTDDPVIDRLYLSSHRGVIADNQAKWAVPTTRTDDKLRMETCFQQACKGKIQALCENPEWAPLKDNRIPSYGVLSVDLSLTVELKIKIASGFGPLITHGSGMDLYKSNHNNVYWLTIPPMKNLALGVINTLEWIPRFKVSPALFTVPIKEAGGDCHAPTYLPAEVDGDVKLSSNLVILPGQDLQYVLATYDTSAVEHAVVYYVYSPSRLSSYFYPFRLPIKGVPIELQVECFTWDQKLWCRHFCVLADSESGGHITHSGMVGMGVSCTVTREDGTNAAQPAIEGRMAQVQLVQSGAELVKPGASVKMSCKASGYTFTSYNMHWVKQTPGQGLEWIGAIYPGNGDTSYNQKFKGKATLTADKSSSTAYMQLSSLTSEDSAVYYCARAQLRPNYWYFDVWGAGTTVTVSKISGGGGSGGGGSGGGGSGGSSDIVLSQSPAILSASPGEKVTMTCRASSSVSYMHWYQQKPGSSPKPWIYATSNLASGVPARFSGSGSGTSYSLTISRVEAEDAATYYCQQWISNPPTFGAGTKLELKAAARGSHHHHHH
B5: HmutscFvCD20Δ24+4A (other)
chain: MAAAANREHLMIDRPYVLLAVLFVMFLSLIGLLAIAGIRLHRAAIYTAEIHKSLSTNLDVTNSIEHQVKDVLTPLFKIIGDEVGLRTPQRFTDLVKFISDKIKFLNPDREYDFRDLTWCINPPERIKLDYDQYCADVAAEELMNALVNSTLLETRTTNQFLAVSKGNCSGPTTIRGQFSNMSLSLLDLYLGRGYNVSSIVTMTSQGMYGGTYLVEKPNLSSKRSELSQLSMYRVFEVGVIRNPGLGAPVFHMTNYLEQPVSNDLSNCMVALGELKLAALCHGEDSITIPYQGSGKGVSFQLVKLGVWKSPTDMQSWVPLSTDDPVIDRLYLSSHRGVIADNQAKWAVPTTRTDDKLRMETCFQQACKGKIQALCENPEWAPLKDNRIPSYGVLSVDLSLTVELKIKIASGFGPLITHGSGMDLYKSNHNNVYWLTIPPMKNLALGVINTLEWIPRFKVSPALFTVPIKEAGGDCHAPTYLPAEVDGDVKLSSNLVILPGQDLQYVLATYDTSAVEHAVVYYVYSPSRLSSYFYPFRLPIKGVPIELQVECFTWDQKLWCRHFCVLADSESGGHITHSGMVGMGVSCTVTREDGTNAAQPAIEGRMAQVQLVQSGAELVKPGASVKMSCKASGYTFTSYNMHWVKQTPGQGLEWIGAIYPGNGDTSYNQKFKGKATLTADKSSSTAYMQLSSLTSEDSAVYYCARAQLRPNYWYFDVWGAGTTVTVSKISGGGGSGGGGSGGGGSGGSSDIVLSQSPAILSASPGEKVTMTCRASSSVSYMHWYQQKPGSSPKPWIYATSNLASGVPARFSGSGSGTSYSLTISRVEAEDAATYYCQQWISNPPTFGAGTKLELKAAARGSHHHHHH

Legend:
Test in all cases: cell-based or functional assay
EGF-receptor = EGF-receptor (Homo sapiens (Human), UniProt P00533)
CD46 [1] = molecular target: T2, CD46 (human, UniProt P15529)
Human SLAM (signaling …) = molecular target: T1, Human SLAM (signaling …)
CD46 [2] = molecular target: T2, CD46; remark: listed apart in the source
human CD20 = human CD20 (human, UniProt P11836)

Row | Binder | titer [t.u./ml] of HIV-1 vector particles on A-431 cells, concentrated supernatant (EGF-receptor) [t.u./ml] | titer [t.u./ml] of HIV-1 vector particles on CHO-BC1 cells, concentrated supernatant (CD46 [1]) [t.u./ml] | titer [t.u./ml] of HIV-1 vector particles on CHO-hSLAM cells, concentrated supernatant (Human SLAM (signaling …)) [t.u./ml] | titer [t.u./ml] of HIV-1 vector particles on HT1080 cells, concentrated supernatant (CD46 [2]) [t.u./ml] | titer [t.u./ml] of HIV-1 vector particles on HT1080-CD20 cells, concentrated supernatant (human CD20) [t.u./ml]
1 | B1 | 22000 | 0 | 160 | – | –
2 | B2 | 270000 | 0 | 280 | – | –
3 | B3 | 58000 | 800 | 960 | – | –
4 | B4 | – | – | – | 980 | 200000
5 | B5 | – | – | – | 200 | 8600
